Measured values reported in the Human Domainome abundance scans (Beltran et al. 2025).
± gives the uncertainty stated by the source.

B1: Poly(rC)-binding protein 1, residues 278 to 350; numbered along this chain, Q15365 (parent)
chain: TQTTHELTIPNNLIGCIIGRQGANINEIRQMSGAQIKIANPVEGSSGRQVTITGSAASISLAQYLINARLSSE

Variants of: B1
Assay: abundance fitness (aPCA) (normalised: wild type 0, dead -1); higher = more abundant; growth selection in yeast, the domain comes from the species named
Details: Homo sapiens

Variant	abundance fitness
I28V	-0.257 ± 0.038
I28E	-0.895 ± 0.2
I28R	-0.825 ± 0.095
I28C	-0.633 ± 0.17
I28D	-0.524 ± 0.2
I28A	-0.735 ± 0.087
I28G	-0.78 ± 0.083
I28M	-0.281 ± 0.049
I28S	-1.04 ± 0.18
I28L	-0.143 ± 0.035
I28H	-0.956 ± 0.28
I28W	-0.408 ± 0.11
I28Q	-0.683 ± 0.2
I28P	-0.939 ± 0.13
I28Y	-0.731 ± 0.29
I28F	-0.65 ± 0.22
V42S	-0.028 ± 0.042
V42Y	-0.141 ± 0.1
V42E	-0.011 ± 0.044
V42D	-0.028 ± 0.074
V42G	-0.13 ± 0.035
V42N	-0.272 ± 0.13
V42I	-0.007 ± 0.11
V42M	-0.229 ± 0.067

Variant	abundance fitness
V42P	-0.192 ± 0.062
V42K	-0.017 ± 0.052
V42W	-0.525 ± 0.061
V42H	-0.186 ± 0.12
V42R	-0.012 ± 0.032
V42T	-0.1 ± 0.059
V42C	-0.086 ± 0.085
V42Q	-0.159 ± 0.058
V42L	-0.151 ± 0.045
E27T	-0.102 ± 0.078
E27G	-0.244 ± 0.034
E27N	0.08 ± 0.11
E27I	-0.164 ± 0.19
E27K	0.021 ± 0.065
E27H	-0.09 ± 0.086
E27C	-0.169 ± 0.065
E27W	-0.136 ± 0.04
E27D	-0.099 ± 0.076
E27Q	0.028 ± 0.053
E27S	-0.035 ± 0.047
E27L	-0.225 ± 0.045
E27R	0.005 ± 0.031
E27Y	-0.157 ± 0.12
E27F	-0.564 ± 0.17

Variant	abundance fitness
E27V	-0.26 ± 0.035
E27A	-0.18 ± 0.04
E27M	0.014 ± 0.047
E27P	-0.704 ± 0.13
P41C	-0.09 ± 0.065
P41T	-0.081 ± 0.058
P41G	-0.11 ± 0.033
P41A	0.057 ± 0.038
P41Q	0.049 ± 0.055
P41L	-0.046 ± 0.047
P41S	-0.061 ± 0.046
P41V	-0.218 ± 0.043
P41I	-0.196 ± 0.12
P41R	0.018 ± 0.035
P41M	0.115 ± 0.057
P41Y	-0.021 ± 0.1
P41E	-0.012 ± 0.042
P41D	-0.092 ± 0.053
N40P	-0.002 ± 0.048
N40F	-0.373 ± 0.096
N40Q	0.086 ± 0.048
N40I	-0.553 ± 0.18
N40M	-0.052 ± 0.056
N40G	0.026 ± 0.029

Variant	abundance fitness
N40S	-0.012 ± 0.042
N40R	0.016 ± 0.031
N40Y	-0.165 ± 0.1
N40V	-0.266 ± 0.04
N40K	0.02 ± 0.056
N40E	0.004 ± 0.046
N40T	-0.16 ± 0.06
N40C	-0.085 ± 0.058
N40W	-0.512 ± 0.053
N40H	-0.094 ± 0.084
N40L	-0.17 ± 0.041
N40D	0.034 ± 0.07
N40A	-0.023 ± 0.039
Q35S	-0.012 ± 0.057
Q35V	-0.119 ± 0.035
Q35F	-0.233 ± 0.14
Q35N	0.088 ± 0.12
Q35Y	-0.231 ± 0.28
Q35C	-0.15 ± 0.09
Q35M	-0.09 ± 0.047
Q35L	-0.15 ± 0.039
Q35I	-0.104 ± 0.17
Q35W	-0.21 ± 0.062
Q35A	-0.11 ± 0.047

Variant	abundance fitness
Q35H	0.138 ± 0.15
Q35D	0.001 ± 0.083
Q35E	-0.058 ± 0.065
Q35T	0.017 ± 0.072
Q35P	-0.641 ± 0.099
Q35G	-0.13 ± 0.039
Q35R	0.023 ± 0.044
I36P	-1.01 ± 0.24
I36L	-0.406 ± 0.045
I36M	-0.648 ± 0.078
I36D	-0.852 ± 0.42
I36E	-0.986 ± 0.18
I36W	-1.04 ± 0.12
I36K	-1.14 ± 0.27
I36F	-0.5 ± 0.21
I36H	0.062 ± 0.43
I36Y	-0.767 ± 0.43
I36R	-0.835 ± 0.069
I36A	-0.97 ± 0.14
I36Q	-0.829 ± 0.14
I36G	-0.782 ± 0.062
I36C	-0.276 ± 0.2
I36N	-0.689 ± 0.29
S32R	-0.85 ± 0.07

Variant	abundance fitness
S32W	-1.14 ± 0.23
S32T	-0.16 ± 0.048
S32M	-0.703 ± 0.087
S32L	-0.703 ± 0.12
S32G	-0.793 ± 0.054
S32Q	-0.334 ± 0.14
S32D	-0.965 ± 0.19
S32I	-0.882 ± 0.25
S32F	-1 ± 0.47
S32V	-0.858 ± 0.086
S32A	-0.498 ± 0.074
S32P	-0.91 ± 0.26
S32K	-0.8 ± 0.11
S32C	-0.201 ± 0.13
S45I	-0.093 ± 0.076
S45E	0.002 ± 0.1
S45F	-0.009 ± 0.094
S45K	0.094 ± 0.076
S45R	-0.157 ± 0.07
S45L	-0.011 ± 0.05
S45V	-0.012 ± 0.087
S45A	-0.002 ± 0.062
S45Y	-0.044 ± 0.075
S45P	-0.442 ± 0.091

Variant	abundance fitness
S45D	0.026 ± 0.15
S45Q	-0.054 ± 0.065
S45C	0.012 ± 0.13
S45T	0.056 ± 0.046
S45N	-0.031 ± 0.067
S45W	-0.431 ± 0.15
S45H	-0.223 ± 0.087
S45M	0.005 ± 0.073
S45G	-0.292 ± 0.12
K37S	-0.11 ± 0.066
K37H	-0.272 ± 0.15
K37E	0.01 ± 0.051
K37V	-0.032 ± 0.032
K37P	-0.718 ± 0.17
K37C	-0.4 ± 0.17
K37F	-0.41 ± 0.22
K37A	-0.109 ± 0.049
K37M	-0.065 ± 0.045
K37N	0.032 ± 0.086
K37G	-0.255 ± 0.04
K37I	0.124 ± 0.097
K37Q	0.083 ± 0.064
K37Y	0.007 ± 0.1
K37W	-0.215 ± 0.051

Variant	abundance fitness
K37T	0.051 ± 0.064
K37D	-0.034 ± 0.076
K37L	-0.142 ± 0.036
S46A	-0.015 ± 0.051
S46C	-0.021 ± 0.081
R29M	-0.022 ± 0.056
R29Q	0.067 ± 0.063
R29G	-0.142 ± 0.035
R29Y	-0.55 ± 0.23
R29D	-0.631 ± 0.17
R29S	-0.046 ± 0.05
R29F	-0.271 ± 0.15
R29A	-0.059 ± 0.033
R29W	-1.06 ± 0.16
R29I	-0.081 ± 0.1
R29L	-0.386 ± 0.05
R29E	0.062 ± 0.058
R29N	0.037 ± 0.12
R29T	-0.085 ± 0.066
R29C	-0.205 ± 0.059
R29K	-0.18 ± 0.082
R29V	-0.129 ± 0.036
R29P	-0.817 ± 0.19
R29H	-0.225 ± 0.14

Variant	abundance fitness
G44A	-0.213 ± 0.065
G44H	-0.333 ± 0.1
G44Q	-0.308 ± 0.069
G44T	-0.374 ± 0.059
G44Y	0.081 ± 0.078
G44S	-0.235 ± 0.049
G44I	-0.732 ± 0.18
G44P	-0.211 ± 0.054
G44N	-0.12 ± 0.088
G44K	-0.229 ± 0.066
G44W	-0.424 ± 0.1
G44C	-0.19 ± 0.12
G44E	-0.278 ± 0.1
G44F	-0.182 ± 0.094
G44L	-0.401 ± 0.05
G44M	-0.343 ± 0.068
G44D	-0.087 ± 0.13
G44R	-0.212 ± 0.055
G44V	-0.353 ± 0.078
A39P	-0.428 ± 0.1
A39F	-0.46 ± 0.19
A39I	-0.029 ± 0.12
A39W	-0.071 ± 0.055
A39L	-0.04 ± 0.038

Variant	abundance fitness
A39M	-0.092 ± 0.05
A39R	-0.17 ± 0.039
A39C	-0.035 ± 0.089
A39N	0.076 ± 0.15
A39K	-0.05 ± 0.071
A39V	-0.382 ± 0.046
A39S	0.03 ± 0.049
A39Q	-0.075 ± 0.077
A39G	0.061 ± 0.034
A39D	0.032 ± 0.097
N26K	0.104 ± 0.048
N26Q	0.025 ± 0.05
N26S	-0.003 ± 0.041
N26I	-0.119 ± 0.096
N26W	-0.34 ± 0.047
N26L	-0.291 ± 0.044
N26H	-0.193 ± 0.11
N26P	-0.682 ± 0.092
N26M	-0.094 ± 0.047
N26R	0.032 ± 0.028
N26V	-0.327 ± 0.042
N26T	-0.022 ± 0.049
E43L	-0.039 ± 0.045
E43V	0.073 ± 0.057

Variant	abundance fitness
E43W	-0.18 ± 0.091
E43H	-0.021 ± 0.054
E43M	0.05 ± 0.07
E43Y	-0.051 ± 0.052
E43C	-0.168 ± 0.083
E43R	-0.061 ± 0.046
E43T	-0.119 ± 0.056
E43F	-0.179 ± 0.067
E43G	-0.115 ± 0.077
E43A	-0.249 ± 0.072
E43Q	-0.258 ± 0.079
E43S	-0.02 ± 0.045
E43I	0.01 ± 0.065
E43N	-0.024 ± 0.054
A34G	-0.597 ± 0.079
A34R	-0.721 ± 0.085
A34F	-0.447 ± 0.35
A34K	-0.943 ± 0.2
A34V	-0.792 ± 0.15
A34W	-0.759 ± 0.12
A34C	-0.462 ± 0.18
A34L	-1.18 ± 0.31
A34S	-0.122 ± 0.073
A34T	0.023 ± 0.071

Variant	abundance fitness
A34Q	-0.641 ± 0.12
A34E	-1.24 ± 0.3
A34P	-0.372 ± 0.15
Q30F	-0.094 ± 0.16
Q30S	0.023 ± 0.064
Q30L	-0.163 ± 0.035
Q30W	-0.334 ± 0.056
Q30P	-0.809 ± 0.16
Q30K	0.172 ± 0.092
Q30C	-0.341 ± 0.13
Q30N	0.147 ± 0.42
Q30D	-0.502 ± 0.41
Q30R	0.099 ± 0.038
Q30G	-0.168 ± 0.047
Q30T	0.064 ± 0.074
Q30A	0.001 ± 0.047
Q30E	0.013 ± 0.079
Q30M	-0.137 ± 0.048
M31K	0.162 ± 0.061
M31S	-0.171 ± 0.053
M31E	0.019 ± 0.049
M31Y	-0.056 ± 0.16
M31V	-0.126 ± 0.047
M31L	-0.009 ± 0.042

Variant	abundance fitness
M31I	-0.196 ± 0.14
M31Q	0.095 ± 0.047
M31N	0.203 ± 0.13
M31A	0.038 ± 0.046
M31T	-0.051 ± 0.073
M31F	-0.109 ± 0.24
M31R	0.088 ± 0.032
M31W	-0.325 ± 0.056
M31D	-0.337 ± 0.18
M31C	0.029 ± 0.088
M31G	-0.347 ± 0.043
M31P	-0.894 ± 0.17
G33N	-0.439 ± 0.13
G33F	-0.927 ± 0.26
G33P	-1.04 ± 0.23
G33H	-0.618 ± 0.24
G33S	-0.382 ± 0.071
G33V	-1.05 ± 0.12
G33K	-0.362 ± 0.066
G33W	-0.414 ± 0.096
G33I	-0.296 ± 0.24
G33T	-0.575 ± 0.11
G33L	-0.61 ± 0.081
G33M	-0.657 ± 0.11

Variant	abundance fitness
G33C	-0.652 ± 0.13
G33R	-0.324 ± 0.045
G33Q	-0.204 ± 0.075
G33E	-0.541 ± 0.078
G33Y	-1.01 ± 0.35
G33A	-0.405 ± 0.056
I38V	-0.094 ± 0.041
I38F	-0.301 ± 0.16
I38A	-0.672 ± 0.07
I38R	-0.737 ± 0.068
I38T	-0.403 ± 0.11
I38G	-0.727 ± 0.054
I38K	-0.612 ± 0.11
I38Q	-0.828 ± 0.14
I38P	-0.631 ± 0.12
I38S	-0.814 ± 0.13
I38D	-0.754 ± 0.14
I38M	-0.333 ± 0.077
I38C	-0.793 ± 0.35
I38L	-0.11 ± 0.048
I38E	-0.679 ± 0.085
I38W	-0.53 ± 0.063
